Source: the supplement of paper PMC12042874
± gives the uncertainty stated by the source.

Assay: amyloid nucleation score (Sup35N fusion, yeast selection) (log enrichment); library NNK3; higher = more nucleation; inactive = no reads after selection
Procedure, shortened: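 The nucleation score, computed with DiMSum, is the log enrichment of output over input reads, centred on the mode score of non-aggregating sequences. Sequences with under 100 input reads were dropped. Reads were generated by Illumina sequencing of plasmid inserts from psi-negative yeast with Sup35N fused to peptides of 20 random codons, induced with 100 μM copper sulfate for 24 hours and grown 7 days at 30°C on medium lacking adenine and uracil.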

Amyloid nucleation score, 1.99 ± 0.051:
RIFFKVCNVRLSVADFSHYV

Amyloid nucleation score, 2.58 ± 0.087:
RLNLNVIL

Amyloid nucleation score, -0.582 ± 0.98:
RPFNHVDISYAKPLDNFWM

Amyloid nucleation score, -0.005 ± 1.1:
RAGVVVFIRRLRRLMGTLGA

Amyloid nucleation score, -0.131 ± 1.2:
RMGHWCRVAGSKLLGVV

Amyloid nucleation score, 2.78 ± 0.054:
RGWVPVTVIQWIMIDCQFKA

Amyloid nucleation score, 1.23 ± 0.15:
RASFVLRCFKIDDVVVQFHL

Amyloid nucleation score, -0.009 ± 0.35:
RLAFVHKMTLRMSRERYLAI

Amyloid nucleation score, 1.82 ± 0.089:
RITLSIDLLSSEYNRIAPRR

Amyloid nucleation score, 1.75 ± 0.07:
QSDHTLPMCRSSLRICVSGR

Amyloid nucleation score, 1.05 ± 0.23:
QTGCIPNER

Amyloid nucleation score, 0.838 ± 0.14:
RGANYVFGWKITVNAFEGEC

Amyloid nucleation score, 0.368 ± 0.22:
QWSGDDTT

Amyloid nucleation score, 0.125 ± 0.75:
QYLTRVHSPEDGTMA

Amyloid nucleation score, 0.81 ± 0.17:
RILVMVNKG

Amyloid nucleation score, 0.028 ± 0.43:
RMIASAFFADCEKYVVNNLE

Amyloid nucleation score, 1.74 ± 0.064:
RCLCDPGYCCIFISENWIL

Amyloid nucleation score, 2.39 ± 0.055:
RMILNMCCTITDRKCHSVSD

Amyloid nucleation score, -0.466 ± 1.9:
RMLRNF

Amyloid nucleation score, 0.819 ± 0.15:
RLAGSFKLKSVYKGMLDYLA

Amyloid nucleation score, -0.155 ± 0.8:
QTYCYKEMFLITERWIPHSP

Amyloid nucleation score, 0.038 ± 0.58:
RNGTHCTIDEIYGW

Amyloid nucleation score, 0.224 ± 0.39:
RLGFRRIRIIRSSGFSEEWH

Amyloid nucleation score, 2.32 ± 0.06:
RKLSNIYFVIGDGMWGSHGW

Amyloid nucleation score, 0.678 ± 0.19:
RGLHLGSSTWIPTAREC

Amyloid nucleation score, 0.131 ± 0.23:
RMLLVEYCMFDFPDSFVRCN

Amyloid nucleation score, 0.997 ± 0.11:
RMRLRVSVILGA

Amyloid nucleation score, -0.31 ± 0.55:
RMKGFEFCCWDQ

Amyloid nucleation score, 2.34 ± 0.081:
QYTCDDSCILFCCASWAEWS

Amyloid nucleation score, 1.01 ± 0.17:
RLLFMIPIMIVMNQHPTMNV

Amyloid nucleation score, 0.207 ± 0.6:
RLVNVNDTGVLDVSVITRCS

Amyloid nucleation score, 0.405 ± 0.23:
RGYEQERLWSSVWHFYNHWL

Amyloid nucleation score, 2.44 ± 0.063:
RLFSFAIFHENTMLGNCCTM

Amyloid nucleation score, 0.744 ± 0.13:
RILALCGHRGNGLQGYILLD

Amyloid nucleation score, 1.84 ± 0.083:
RHVVGCSYNVIGCFYVVLRI

Amyloid nucleation score, 0.661 ± 0.13:
RAHICSYSFAIYVFVCN

Amyloid nucleation score, -0.425 ± 0.59:
RIVSVFLDNEQISRNGAVSS

Amyloid nucleation score, 1.34 ± 0.097:
RGYRAK

Amyloid nucleation score, 2.8 ± 0.082:
RFSTQAENGVSIIFNLVCFN

Amyloid nucleation score, -0.241 ± 0.36:
RLTWESTMYVKIVGMSYAFG

Amyloid nucleation score, 0.424 ± 0.75:
RCSCLTFVVSTK

Amyloid nucleation score, 1.26 ± 0.1:
RCSVVTSFQGICMACKYAGG

Amyloid nucleation score, inactive:
QRVMFFCAMSLNKPRSV
QRVWRMMQNLSRW
QSASHRP
QSCCKQQILYHRGQTRHQ
QSFGSHYASVMAKY
QSGSTLTMLQWVIPSDSKLM
QSLLSVGEWNAQHMSLSSGR
QSRMLELS
QSSIHTFCLTLLLSKTYSYQ
QSSLVDGWKNLTKVRCGDYS
QSYDL
QTLFRTLWRFIIITAKQSSD
QTLRGCSNCRTRVGC
QVLCWFISTADLLLAK
QVPLCHMAGKQNLVSRAQTC
QVTDEGD
QWKSSLDWRRCW
QWLAEGYT
QYLPGRTVFCMQIYDVQLYP
QYRGCG
QYTFVGDLMVDLITKTVMLM
RAFLPYYAGYEDRTQSWL
RANSIC
RAQKVPCVIFSYTWIRSMSD
RARMV
RARNTKLCNLSVCMTMGPEA
RASKRLCWSG
RAYMVGCYDCSSYLDPFSYS
RAYTDV
RCFRLIKVLKLLTVFEIITF
RCLSNN
RCRCTFYCFRVL
RCRKHALLFHRCILGYSVLP
RCWNKVFLSYQTELI
RCYALDFRWLILDVSYHGWG
RDCCYLTFALVPSHGLLKVK
RDCSSAIYKCTWCMSF
RDFITRSSECSESD
RDGNRVQMVSIPIQVSAMLG
RDLKFGWGWMGRTEISWYLF
RDNYDAFMIL
RDQEHSRTFISM
RDYLYGNDMSNVKGYRRRWY
REITSWLDIDFL
RERVATFQQPTRHGGGSLAS
REVPT
REWIGLSTYDSA
RFATGCDYLLRRW
RFFLYFNCAWVILMWCKRIV
RFGDVHDCVVVSNGNLRNES
RFISLVRNYFFTCCRRRSMF
RFLLVVMF
RFNFNFFRSRSHLSVFTQFG
RFNHMRNGFWRSIS
RFRFILRCC
RFSSSSQPFYSFAIVRR
RFSYVVTRSG
RFVTSLYDMLSI
RGAGSTESLTNGRGSIAIHR
RGFFSHWSFDVTHYVLVRTL
RGIKWWILDFWVDMHTCMFK
RGKYFGCYLSVYSHL
RGQGKHNSRYFCLIT
RGRMLDHGSS
RGTSSQ
RGVFLTEEASFIGELSLCSA
RGYGTSDRIAALMWLSRWFQ
RHLTVWLL
RHMPYNGLKNDKIFYILNYT
RHVQG
RICWSDINWYNRIFLIAELC
RIDSMRRMGYLNSIFGCFV
RIFSFT
RIGVTYWGICSLKLT
RILRVRF
RINSRHLLNVLAVRKTIQGS
RIRFKRGVPSVVAHVVLR
RIRGTCMGL
RISYKVRHTSNLVKTWCYTW
RITPLDCLSNGRQ
RITSDALG
RIVYCSFTKVG
RIWPSGSC
RIYDYFLFSCYRV
RIYLA
RKLCINGCVFTAMREFC
RKYGTLCKGCVL
RLCLFLDPIY
RLCWLNVDHGLLVNPPWGYR
RLIQTLWIFIKVRSRALVTH
RLKLNGAQGEFSGVWLDIWA
RLLHSGRS
RLLNVLKRYLMVSLQKAGSD
RLSNVSTMGGMRIPDLLEM
RLSRWRRSNFSE
RLVMHSRHTMLLHARGLRSR
RLVPFTWGHIPG
RLWTFCFA
RLYAALMFSSVRLCACVALV
RLYLKTDVSDTRHRYMWLSE
RLYVSKEFRSA
RMAYIENGVDTAACSDLYVL
RMCLITTYTRVFLWLHT
RMGWSTGILCRVDTLFITML
RMLTHKQIIIRTVWTQYVYI
RMPNSTFGVGWETGFQHSQG
RMRCAAVRAARAVPATKGEG
RNFVEANAYSFRLVTVTLSM
RNGMISQAYSVP
RNISDMEPS
RNKLFLINWLFYNCMTWAFH
RNLSKIRMPMVVNNTEY
RNNVPGVEYVLDYLFMLKVM
RNVQLMVPFTAGVLWVLQCK
RNVWRCSLPYHFIF
RPAIRSFFVMVSVKLR
RPAWTRTSTVDKLQIELRYE
RPDCEYGSS
RPFKFMKLFHIMCVVDVYCM
RPPMDEICSNFRSRTLNQSK
RQHFRYHGIFAEFGSTFVRS
